Substitutions are numbered along the chain they refer to. Several values for one entry are separate records, joined by “and”; a condition that tells them apart may be missing. Identical values can stand only once.

Common to all, as to settings: protein: recombinant; tags: N-terminal His tag (pETG10a); label: 3'-Cy5; single strand, 12 nt
For data set [1], the target named is T1, IFIT5 K150M (UniProt Q13325 1-482, K150M).
T1 sequence: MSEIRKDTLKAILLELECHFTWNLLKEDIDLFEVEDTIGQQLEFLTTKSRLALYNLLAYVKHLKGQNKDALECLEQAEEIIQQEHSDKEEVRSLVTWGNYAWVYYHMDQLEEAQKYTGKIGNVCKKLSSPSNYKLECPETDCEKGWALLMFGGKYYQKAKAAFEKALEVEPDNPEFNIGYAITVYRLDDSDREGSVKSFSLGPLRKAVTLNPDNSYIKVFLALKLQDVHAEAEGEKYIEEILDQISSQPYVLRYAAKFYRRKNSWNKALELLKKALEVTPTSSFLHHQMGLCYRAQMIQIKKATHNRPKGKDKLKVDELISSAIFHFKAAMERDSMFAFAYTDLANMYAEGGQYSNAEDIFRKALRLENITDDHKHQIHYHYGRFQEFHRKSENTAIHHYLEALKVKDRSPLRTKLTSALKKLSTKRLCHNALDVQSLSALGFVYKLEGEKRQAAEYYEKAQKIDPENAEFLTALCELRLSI
The data set can be described thus: MST; apparent; 1 mM Mg2+; MST: PBS, 5% glycerol, 0.5 mM TCEP, 0.05% Tween20, +/-1 mM MgCl2 (K150M always with 1 mM MgCl2), 10 nM Cy5-RNA, 22 C, 10 min incubation; pH not stated.

Data set [2] deals with T2, IFIT5 WT (UniProt Q13325 1-482).
T2 sequence: T1 sequence with M150K
The data set can be described thus: MST; apparent; replicates with and without 1 mM Mg2+ pooled; MST: PBS, 5% glycerol, 0.5 mM TCEP, 0.05% Tween20, +/-1 mM MgCl2 (K150M always with 1 mM MgCl2), 10 nM Cy5-RNA, 22 C, 10 min incubation; pH not stated.

For data set [3], the target named is T3, IFIT5 Q41E/K150M/R253M (UniProt Q13325 1-482, Q41E;K150M;R253M).
T3 sequence: T1 sequence with Q41E, R253M
The data set is described as above.

The target of data set [4] is T2, IFIT5 WT. Put plainly: MST; apparent, single replicate; no Mg2+ (assignment by word order); MST: PBS, 5% glycerol, 0.5 mM TCEP, 0.05% Tween20, +/-1 mM MgCl2 (K150M always with 1 mM MgCl2), 10 nM Cy5-RNA, 22 C, 10 min incubation; pH not stated.
In data set [5] the target is T3, IFIT5 Q41E/K150M/R253M. The data set is described as above.
The target of data set [6] is T2, IFIT5 WT. Put plainly: MST; apparent, single replicate; 1 mM Mg2+ (assignment by word order); MST: PBS, 5% glycerol, 0.5 mM TCEP, 0.05% Tween20, +/-1 mM MgCl2 (K150M always with 1 mM MgCl2), 10 nM Cy5-RNA, 22 C, 10 min incubation; pH not stated.
Data set [7] deals with T3, IFIT5 Q41E/K150M/R253M. The data set is described as above.

For the molecule AAAAAGGAAGGU (ssRNA, 5'-triphosphate) [5'-ppp-AAAAAGGAAGGU-Cy5], the Kd in data set [1] is 204 nM; in data set [2], 13.4 nM; in data set [3], 1980 nM; in data set [4], 8.87 nM; in data set [5], 1700 nM; in data set [6] it was 12.7 nM and 13.7 nM and 23 nM. Moreover, in data set [7], the Kd turned out to be 2340 nM.

The values are drawn from publication PMC9677429, “The Role of Electrostatic Interactions in IFIT5-RNA Complexes Predicted by the UBDB+EPMM Method”.
